Reference: patent US9127073B2, “Rock2 and Rock3, two new gain-of-function variants of the cytokinin receptors AHK2 and AHK3” (Freie Universitat Berlin, priority 2009, dated 2015)

Key:
[1] = system: Arabidopsis thaliana Columbia (Col-0); experiment: Shoot parameters of mutant plants and transgenic lines (height, siliques, stem thickness, flower size); type: in vivo; conditions: compared to wild-type or ore12 plants; for size of flowers: flowers at stage 14
Protocol: (§1) The Columbia (Col-0) ecotype of Arabidopsis thaliana was used as the wild type. Plants were grown in the greenhouse on soil or under sterile conditions in Petri dishes containing ATS-medium (Estelle, M. A., and Somerville, C. (1986). Auxin-resistant mutants of Arabidopsis thaliana with an altered morphology. Mol. Gen. Genet. 206, 200-206). All plants were grown at 22° C. under long-day conditions (16 h light/8 h dark).
For the construction of the pAHK2:rock2 transgene a 2124 by promoter region of AHK2 was amplified by PCR from genomic DNA of A. thaliana Col-0 and cloned with Gateway™ technology into the pDONR™ P4-P1R entry vector (Invitrogen, Karlsruhe, Germany). After cloning the AHK2 coding sequence with Gateway™ technology into the pDONR™ 221 entry vector (Invitrogen) the rock2 point mutation was introduced by PCR based mutagenesis with the “QuickChange Site-Directed Mutagenesis”-Kit (Stratagene, La Jolla, USA) to obtain the rock2 Allele. Both fragments were combined with Multisite Gateway™ recombinational cloning in the pK7m24GW,3 vector (Karimi et al., 2005). To obtain the pAHK3:rock3 construct a 2062 bp promoter region of AHK3 was amplified by PCR from genomic DNA of A. thaliana Col-0 and the fragment was inserted into pDONR™P4-P1R entry vector (Invitrogen). The AHK3 cDNA containing the open reading frame of the gene was PCR-amplified from A. thaliana Col-0 and cloned into pDONR™222 entry vector (Invitrogen). To introduce the rock3 point mutation the “QuickChange Site-Directed Mutagenesis”-Kit (Stratagene, La Jolla, USA) was used to get the rock3 allele. The AHK3 promoter and the ROCK3 cDNA were combined with Multisite Gateway™ recombinational cloning in the pK7m24GW,3 vector (Karimi, M., De Meyer, B., and Nilson, P. (2005). Modular cloning in plant cells. Trends Plant Sci. 10, 103-105). Both constructs were introduced into Agrobacterium tumefaciens strain GV3101 and A. thaliana Col-0 plants were transformed using the floral-dip method (Clough, S. J., and Bent, A. F. (1998). Floral dip: a simplified method for Agrobacterium-mediated transformation of Arabidopsis thaliana. Plant J. 16, 735-743). Transgenic lines were selected using kanamycin and propagated into the T3 or T4 generation.
(§2) At 18 days after germination digital pictures were taken of rosettes and the rosette diameter was measured using the Scion Image program (Scion Corporation, Frederick, Md., USA). Flowers at stage 14 were photographed and their size was also measured using the Scion Image program.
(§3) Fresh weights were measured by weighting either rosettes, shoots without rosettes, or whole aerial parts of the plants. The final plant height and the number of siliques were determined after termination of flowering. For analysis of seed yield, plants were put into paper bags after termination of flowering. After plants were kept dry for additional three weeks, total seed weight was determined.

[2] = system: 35S:CKX1 plants; experiment: Reversion of the cytokinin-deficiency phenotype in the 35S:CKX1 background; type: in vivo, Arabidopsis thaliana
Protocol: Approximately 25000 35S:CKX1 seeds (Werner, T., Motyka, V., Laucou, V., Smets, R., Van Onckelen, H., and Schmülling, T. (2003). Cytokinin-deficient transgenic Arabidopsis plants show multiple developmental alterations indicating opposite functions of cytokinins in the regulation of shoot and root meristem activity. Plant Cell 15, 2532-2550) were soaked for 16 h in 100 ml 0.2% (v/v) ethyl methane sulfonate at room temperature. The M1 generation was grown as single plants and the M2 generation was screened for plants with wild-type-like phenotype.
Mapping populations for rock2 and rock3 were generated by crossing the rock2 35S:CKX1 and rock3 35S:CKX1 plants with wild type ecotype Landsberg erecta. The F2 progeny plants were used to map rock2 and rock3.
In order to compare the consequences of the rock3 mutation with those of the ore12 mutation the latter was introgressed into the 35S:CKX1 background (the rock3 was identified in this background). […] However, at different time points during development the degree of reversion is less strong than the reversion achieved with the rock3 allele. This difference is most evident for seedling size and rosette diameter. These two parameters are good indicators for a changed cytokinin status of the CKX1ox plants.

[3] = system: Arabidopsis thaliana Columbia (Col-0); experiment: Vegetative growth and fresh weight of mutant alleles in wild-type background; type: in vivo; conditions: for vegetative growth of wild-type plants: mutant allele in Col-0 background, compared to wild type
Protocol: as §1
In order to analyze the consequences of the rock2 and rock3 mutations in wild type, the rock2 and rock3 suppressor mutants in 35S:CKX1 background were crossed to wild-type Columbia. […] The F2 generation was screened for rock2 and rock3 plants in wild-type background (called then rock2 and rock3 mutants).
as §2, §3

[4] = system: Arabidopsis thaliana Columbia (Col-0); experiment: Natural leaf senescence of leaf 6 (Fv/Fm of PSII, chlorophyll content) under long-day conditions; type: in vivo
Protocol: as §1
The maximum efficiency of PSII photochemistry (Fv/Fm ratio) of dark adapted plants was measured with FluorCam (Photon Systems Instruments, Brno, Czech Republic). Chlorophyll contents of individual leaves were measured using the Chlorophyll Meter SPAD-502 (Konika Minolta, Bremen, Germany), taking the mean value of two measurements on the same leaf.

Row | Molecule | number of siliques on the main stem [1] | shoot height (plant height) [1] | stem thickness [1] | size of flowers [1] | reversion of the phenotypic consequences of CKX1 overexpression (cytokinin deficiency) [2] | increase in fresh weight of rosettes and whole plant over the complete life cycle ([3]; difference particularly evident at 32-40 DAG) | vegetative growth of wild-type plants [3] | onset of leaf senescence ([4]; leaf 6, compared to wild type and among mutants) | longer life time of leaves compared to wild-type leaves ([4]; leaf 6, long-day conditions)
1 | rock2: constitutively active gain-of-function variant of cytokinin receptor AHK2 of Arabidopsis thaliana, SEQ ID No. 1, encoded by SEQ ID No. 3 (protein, listed as Arabidopsis thaliana) MSITCELLNLTSKKAKKSSSSDKKWLKKPLFFLILCGSLVIVLVMFLRLGRSQKEETDSCNGEEKVLYRHQNVTRSEIHDLVSLFSDSDQVTSFECHKESSPGMWTNYGITCSLSVRSDKQETRGLPWNLGLGHSISSTSCMCGNLEPILQQPENLEEENHEEGLEQGLSSYLRNAWWCLILGVLVCHKIYVSHSKARGERKEKVHLQEALAPKKQQQRAQTSSRGAGRWRKNILLLGILGGVSFSVWWFWDTNEEIIMKRRETLANMCDERARVLQDQFNVSLNHVHALSILVSTFHHGKIPSAIDQRTFEEYTERTNFERPLTSGVAYALKVPHSEREKFEKEHGWAIKKMETEDQTVVQDCVPENFDPAPIQDEYAPVIFAQETVSHIVSVDMMSGEEDRENILRARASGKGVLTSPFKLLKSNHLGVVLTFAVYDTSLPPDATEEQRVEATIGYLGASYDMPSLVEKLLHQLASKQTIAVDVYDTTNTSGLIKMYGSEIGDISEQHISSLDFGDPSRNHEMHCRFKHKLPIPWTAITPSILVLVITFFVGYILYEAINRIATVEEDCQKMRELKARAEAADIAKSQFLATVSHEIRTPMNGVLGMLKMLMDTDLDAKQMDYAQTAHGSGKDLTSLINEVLDQAKIESGRLELENVPFDMRFILDNVSSLLSGKANEKGIELAVYVSSQVPDVVVGDPSRFRQIITNLVGNSIKFTQERGHIFISVHLADEVKEPLTIEDAVLKQRLALGCSESGETVSGFPAVNAWGSWKNFKTCYSTESQNSDQIKLLVTVEDTGVGIPVDAQGRIFTPFMQADSSTSRTYGGTGIGLSISKRLVELMQGEMGFVSEPGIGSTFSFTGVFGKAETNTSITKLERFDLAIQEFTGLRALVIDNRNIRAEVTRYELRRLGISADIVSSLRMACTCCISKLENLAMILIDKDAWNKEEFSVLDELFTRSKVTFTRVPKIFLLATSATLTERSEMKSTGLIDEVVIKPLRMSVLICCLQETLVNGKKRQPNRQRRNLGHLLREKQILVVDDNLVNRRVAEGALKKYGAIVTCVESGKAALAMLKPPHNFDACFMDLQMPEMDGFEATRRVRELEREINKKIASGEVSAEMFCKFSSWHVPILAMTADVIQATHEECMKCGMDGYVSKPFEEEVLYTAVARFFEPC | more siliques on the main stem | increased | thicker stems | bigger flowers | suppress the phenotypic consequences of cytokinin deficiency | effect is strongest | significantly enhance the vegetative growth | earliest onset of leaf senescence | 
2 | rock3: constitutively active gain-of-function variant of cytokinin receptor AHK3 of Arabidopsis thaliana, SEQ ID No. 2, encoded by SEQ ID No. 4 (protein, listed as Arabidopsis thaliana) MSLFHVLGFGVKIGHLFWMLCCWFVSWFVDNGIEDKSGLLVGSVGDLEKTKMTTLKKKNKMWFWNKISSSGLKIPSFSYQFLGSVKFNKAWWRKLVVVWVVFWVLVSIWTFWYFSSQAMEKRKETLASMCDERARMLQDQFNVSMNHVQAMSILISTFHHGKIPSAIDQRTFSEYTDRISFERPLTSGVAYAMRVLHSEREEFERQQGWTIRKMYSLEQNPVHKDDYDLEALEPSPVQEEYAPVIFAQDTVSHVVSLDMLSGKEDRENVLRARSSGKGVLTAPFPLIKTNRLGVILTFAVYKRDLPSNATPKERIEATNGYLGGVFDIESLVENLLQQLASKQTILVNVYDITNHSQPISMYGTNVSADGLERVSPLIFGDPLRKHEMRCRFKQKPPWPVLSMVTSFGILVIALLVAHIIHATVSRIHKVEEDCDKMKQLKKKAEAADVAKSQFLATVSHEIRTPMNGVLGMLHMLMDTELDVTQQDYVRTAQASGKALVSLINEVLDQAKIESGKLELEEVRFDLRGILDDVLSLFSSKSQQKGVELAVYISDRVPDMLIGDPGRFRQILTNLMGNSIKFTEKGHIFVTVHLVDELFESIDGETASSPESTLSGLPVADRQRSWENFKAFSSNGHRSFEPSPPDINLIVSVEDTGVGIPVEAQSRIFTPFMQVGPSISRTHGGTGIGLSISKCLVGLMKGEIGFSSTPKVGSTFTFTAVFSNGMQPAERKNDNNQPIFSEFRGMKAVVVDHRPARAKVSWYHFQRLGIRVEVVPRVEQALHYLKIGTTTVNMILIEQEIWNREADDFIKKLQKDPLFLSPKLILLANSVESSISEALCTGIDPPIVIVKPLRASMLAATLQRGLGIGIREPPQHKGPPALILRNLLLGRKILIVDDNNVNLRVAAGALKKYGADVVCAESGIKAISLLKPPHEFDACFMDIQMPEMDGFEATRRIRDMEEEMNKRIKNGEALIVENGNKTSWHLPVLAMTADVIQATHEECLKCGMDGYVSKPFEAEQLYREVSRFFNSPSDTES |  |  | thicker stems | bigger flowers | suppress the phenotypic consequences of cytokinin deficiency |  | significantly enhance the vegetative growth |  | about ten
